As a reminder, the stoichiometry N is the number of molecules, sites or subunits per partner or assembly.

The test concerns the target VcSiaP R125A Q54R1 L173R1 with N-terminal HisTEV tag (Vibrio cholerae) (UniProt Q9KR64). Kind of test: crystal structure.

The substance “VcSiaP R125A Q54R1 L173R1 with N-terminal HisTEV tag (from UniProt Q9KR64 23-321) (natural protein)” yielded a stoichiometry N of 2.

The values above are taken from publication doi:10.1101/2020.12.02.404004.
